Data published in a protein production outcome set (Wang et al. 2014).

Experiment: label from the status in PepcDB records

## MTVGTYAELASVFAALSDETRWEILTELGRADQSASSLATRLPVSRQAIAKHLNALQACGLVESVKVGREIRYRALGAELNKTARTLERIGAEWDRRLAAIKQIAESMEE
  protein production: not failed

## MPTTTTDPNQKQAELSPDELQRYSRHLTLPEFGREGQEALKNASVLLVGAGGLGSPAATYLAAAGVGRIGLVDFDSVEASNLQRQILYGTSDVGRPKLDAASERLEDLNPHVDVETHEVRLTSDNALDIIDQYDVVADGTDNFPTRYLVNDACVMTGTPNVYASIFRFEGQVSVFATEDGPCYRCLYEEPPPPGLVPSCAEGGVLGILPGFIGTLQATEVIKVLTGVGEPLVGRLLMSDALNMDFRTVNVPTNPECPVCGDDPTVTELIDYEAFCGLPQSDESSPNGTADSDVSDTDDAVPETSVHDLKQRRDAGDAPFVLDVREPYEAEIASLDADQLIPVDDLEARLDELDAGPEEEIVVHCRSGARSAKATAFLREQGYDASNLEGGVLAWSEEIDDSVPQY
  protein production: failed

## MEDQGVLAGFFALSFAFILVILIWAIISYLLTAFALYSMAKNDGATDGVLAFIPFLNSKTWGDLAKDKLPDFLKEEAGWKVFGIYVACFIFNFVPIISLLATAVSIVLSIYLIYAILDRYGTNSILFTIIHVITFSVFLPIHLFIIRNEPVRYKE
  protein production: failed

## TFSYLAETDYPVFTLGGSTADAARRLAASGCACAPVLDGERYLGMVHLSRLLEGRKGWPTVKEKLGEELLETVRSYRPGEQLFDNLISVAAAKCSVVPLADEDGRYEGVVSRKRILGFLAERI
  protein production: failed

## MSLIEIRKRTLIVETTYHENGPAPAQPLKLAASCAVIRNPYAGRYEPDLMPFMAELRSLGTLLATELVDTLGKDNIEVYSKAAIVGVDGEMEHGAVWHEAGGWAMRSVLGEPKAMVPAVKAVATAGYRMMVPVHYIHASYVRSHFNSIEIGIQDAPRPREILFALVMGTGARVHARLGGLTKEAVSVHDGQR
  protein production: not failed

## MKTYTLIATAPMGIEAIVAKEVRDLGYDCTVDNGKVVFEGDALAICRANLWLRTADRVKVQAAEFIAKTFDELFEKTKAIDWSAYLPEHASFPVTGKSVKSVLASVPDCQRIVKKAIAEKLKSEYQTQGEWLEETGPEYKIEVSLLKDKAVITLDSSGAGLHKRGYRTGQGEAPLKETLAAALILLTNWTPDRPFVDPFCGSGTIPIEAALIGQNIAPGFNRDFASERWEWIGKEVWDQARLEVEEKANYDQPLSISGYDLDHRMIEIAKANAEEAGLADFIEFKQMQVKDFRTKEEYGVIVGNPPYGERLGEKKAVEAMYKDMGKAFAELDTWSVYMLTSNERFEECYGKKATKKRKLFNGFIKTDYYQYWGKRPPKPNKEK
  protein production: not failed

## MRMGVKDFAPSWFASVMGTGALALVSKSYSFKLPILEAFSKFLTYLNTIIFFVLLIPWLLRWIKYPSEAKKDLYHPVTSHFYGTMPIAMTIVAVNLAMFGYKEIALPLWILGSILVVIFAFLIPYLFFISEGVDVKTITPAWFIPPVGLIVIPLTSLPFVPSSVMWREVFIVLNYFGFGAGFFIYLALFAIVMRRFITHELLPPIMAPAVWINLGPLGAGAVALLNLAKIMPIAKSAFKAFAFILWGFGLWWLIMAILMTLHYLKNLHLPYSLAWWAFIFPLGAYVSATYNVGISIGITAMIEFGFALYWFLLALWLVTGIKTLVHDFSS
  protein production: failed

## MGWFSAPEYWLGRLALERGTAIIYLIAFVAAAQQFRPLIGEHGMLPVPRYLAGQSFWRTPSIFHFRYSDRVFAGVCWLGAVLSAAVVAGAASFVPLWATMLIWLTLWVLYLSIVNVGQAWYSFGWESLLLETGFLMIFLGNERTAPPILTLLLARWLLFRVEFGAGLIKMRGDSCWRSLTCLYYHHETQPMPGPLSWFFHHLPKPLHRIEVAGNHFAQLVVPFGLFTPQPAASIAAAIIVVTQLWLVASGNFSWLNWLTILLACSAIDTSSAAALLPMPAQPALSAPPQWFAGLVVVFTAAVLLLSYWPARNLLSSHQRMNMSFNPFHLVNTYGAFGSICRTRREVVIEGTDESPITEQTVWKAYEFKGKPGDPRRLPRQWAPYHLRLDWLMWFAAISPGYALPWMTPFLNRLLRNDPATLKLLRHNPFPQSPPRYVRAQLYQYRFTTVAELRRDRAWWHRTLIGRYVPPMSLRKVASPPAD
  protein production: failed

## MPTTKQLKDTELPLNFFEHSSLETIELFIQHLTEAMILVNANGFIRSCNQRSAELLDCPQVSLKGQDWRNFLTEHHQARYDNLLSHDVQLGTNCGQPVQHPAQETTLICASGKAKDVELSISYIPGHEPMFVMVMHDLTHHKAENQKLRKLAATDSLTQLANRRYFDEMLQQHWEECTAKLRPISVVIIDVDYFKVFNDQFGHIQGDECLRKIAKVIAGIVPTEIGLAARYGGEEFALILPNHNAKMALTIAQKIQQGINNIRFTDQGLRDYVSVSASQGIACEVNGQFRTSLAMVCAADTALYRAKADGRDRINTSL
  protein production: failed

## MRWKLRTAGGLTALALLGGALAGPAARAAEQGSDRLGDLVNPFIGTQNEGNTYPGAAVPFGMVQLSPDTGHNTGYDYTQNHIRGFSLVHLSGVGCRIGGDLPVLPTTGDVTETDYAKYAAGFSHDSERASPGYYRVGLDSGIVAELTATGRTGVQRYTFPATDKANVLLNAGQALHKTVSTDVEVLDDRTVRTRISGSGFCRDTGPYTVYTITRFDRPFTAYGTWHGGTVTEGSAESAAGTGRNGAYARFDATEDRTVEATTALSYVDARGAEVNLRSAEGRSFADVREAARRSWEDRLDDVRVRGGSDTLRRTFYSSLYRSFLAPNIGSDADGRYTGWDHRIHRARGFTYYQNWSLWDTYRTQCQLLALLAPRESRDMAISVLKIDEDGGWLPKWGYGTVETNIMSGDPVTPFLTNAYQQGLLKGYEEQAYRALAKNADGLPPAAYPGVGRDGNREYIADGFVPYIKGGPHAKPGDSDYAHGASATMEYALSDAMLSRMARDLGHDADAERYTARSRNYRTLFDASTGFFRARDTSGAFAGPADPADSEGFHEGTAWQYQWLVPQDLPGLVDLIGGKQAANDRLDAFFAYEQLLQDPARTAREVWVDGPYEYYNSDKYNPQNEPDLIAPYTYLSTGQPWKTTDVVHAALTLFTDTPTGMTGNDDLGTMSAWHVLSSIGLFPVQPGYDTWGLSTPVFERVDLRLDRGYYPRGTLTVTAPGTSDRDRYIQSVRVDGASHDRTYLTTRVLRGLEALHFAVGARPSAWGTAPHAAPPALK
  protein production: failed

## MTQRRAMLILHGKQSLNEDVRDAVADKRKQGWELDVRLTWEAGDAQRLVNEALAAGHRHIVAGGGDGTLRDIAEALALAATKASLTILPLGTANDFARAAGVPLDVSKALQLMDVAPRAVDLGEVGGKLFLNMATGGFGSQVTANTSEDLKKVLGGAAYLFTGLTRFSELHAAHGELTGPDFHWRGDLLALGIGNGRQAGGGHELCPTALADDGLLDISILPAPQEVVGTLRSLLEGGLGIDNMFIRARLPWVELKSAQGLDINLDGEPLSGEDLRFVARPGALQVHLPANSPVLGSTPLLNRPD
  protein production: not failed

## MSLEILTAGPMLTVQDAGRFGLRHMGVSPAGPIDRAAMALANALVGNDPGAAALEFAGPAGRFRCDRPVRFAVAGADCPLRIDARTVSPGESHRLNPGETLTVGVPEGAVWAYLAFSGAIASPEVLGSRATHLRSGVGGRALGAGDRLPLGEDDPEAPCLRPGLRLEAAAPFRETGPIRLILGPQDDHFAPEVIARLTGCDFTVTPQRDRMAMVLGGVELPAERGHDIVSDGTVPGSVQVPGSGTPLVLLAESQTTGGYPKIGTVASVDLARLAQMPVGARFRFALISAREGEDLWIARQAR
  protein production: failed

## MTTRRLPRPCRFNPTIHVVLAVLALLLSGLAAFADLPALTGRVVDDAGIIDAGTRAALTQKLADFEKKGSDQIVVATIPSLGGEEIEPYANRLFRFWKLGQAGENNGVLLLVAKNDHKMRIEVGYGLEGTLTDLHTKLIIENDMVPAFRAGDFSGGISKAVDDMVMVLEGNPEELEARGKRNPADSSTPIDPIVTVFLILWATMFFGGLAMAFLPPMFGTKLSPGVYRWLGMTFRYGKGPSGSSGGSGWTTGSSGGGWSSGSSSSGWSSGSSSSGGGFSGGGGSSGGGGSSGSW
  protein production: failed

## MGAIQFQTAPKLPVTVLLAAKNEAVNLPRCLAALGPAERVIVLDSHSTDATAEIARQHGAEVAQFDYRGGYPKKRQWALDTIPFGTPWILLLDADEVVPEDLWKEIGNVTRQPDADAYLITKGFHFLGRKFKHGGFSHSAVLLFKTGMARFEKLFDDDLNGLDMEIHERVVVDGRIGKLKTPLVHEDFKGLEAYITRHNKYSTWEAKVRHHYLTTGRYGEQTIKPRLFGNSQERRRFLKALIIRLPFEPQIWFIYHYLLRLGFLEGRPGLIASQIRAAYIAQARAKIYELRLNTPSRLEHHHHHH
  protein production: failed
